The DeepSol protein solubility set

Test: soluble on expression in E. coli; label from the status in PepcDB or PDB records

| Sequence | soluble on expression in E. coli |
| --- | --- |
| GSHADLLRKNAEVTKQVSMARQAQVDLEREKKELEDSLERISDQGQRKTQEQLEVLESLKQELATSQRELQVLQGSLETSAQSEANWAAEFAELEKERDSLVSGAAH | soluble |
| GSHMAQQNILSVHILNQQTGKPAADVTVTLEKKADNGWLQLNTAKTDKDGRIKALWPEQTATTGDYRVVFKTGDYFKKQNLESFFPEIPVEFHINKVNEHYHVPLLLSQYGYSTYRGS | soluble |
| GSHMASMTGGQQMGRGSMVKVLTACGNGMGSSMVIKMKVENALRQLGVSDIESASCSVGEAKGLASNYDIVVASNHLIHELDGRTNGKLIGLDNLMDDNEIKTKLEEALK | soluble |
| GSHMASREQTMENILKAAKKKFGERGYEGTSIQEIAKEAKVNVAMASYYFNGKENLYYEVFKKYGLANELPNFLEKNQFNPINALREYLTVFTTHIKENPEIGTLAYEEIIKESARLEKIKPYFIGSFEQLKEILQEGEKQGVFHFFSINHTIHWITSIVLFPKFKKFIDGLVPRGSGGLVPRGSGDLVSRIISALTDKPNI | soluble |
| GSHMATPWSGYLDDVSAKFDTGVDNLQTQVTEALDKLAAKPSDPALLAAYQSKLSEYNLYRNAQSNTAKAFKDIDAAIIQNFR | soluble |
| GSHMIDVPIPRFAVGIVIGRNGEMIKKIQNDAGVRIQFKPDDGTTPERIAQITGPPDRAQHAAEIITDLLRSVQAGNPGGPGPGGRGRGRGQGNWNMGPPGGLQEFNFIVPTGKTGLIIGKGGETIKSISQQSGARIELQRNPPPNADPNMKLFTIRGTPQQIDYARQLIEEKI | soluble |
| GSHMKDYSLEIDAVMKAAQINDTNNFVQALMRWHFSKETGSPFWLGMREQLNFDPIKDVKTINDLRQFSDISHCLRQEPVANLVPQGLPADSHPQVYESGGTTGAPKYVVAYDAWIEALISWRMSGYQHRPGRPSGNTLAAIPTGPHIVGAINKERALRLGGMFFSIDIDPRWVKRSLSEGDTATVRKYTHHLVDQVQNTLMNQDIRFLVTTPPVLRELLKRPEVVLQMKQSLAQITLGGTELNLDEIKFIASEILPDCEFSASYGSTSALGVSRSLLITSESQQVIYDSFSPFITYDVVDSITAQTVEYGERGNVIVTHLSPWAFYPRVAERDTAIRLPGVSGFAGDRLADIEPLKISEGRKVIEGVY | soluble |
| GSHMKFTRVCDRRDVPEGEALKVESGGTSVAIFNVDGELFATQDRCTHGDWSLSDGGYLEGDVVECSLHMGKFCVRTGKVKSPPPCEALKIFPIRIEDNDVLVDFEAGYLAP | soluble |
| GSHMLFAEFAEFCERLEKISSTLELTARIAAFLQKIEDERDLYDVVLFITGKVYPPWDERELGVGIGLLYEALENVSGVKRSEIESMIREYGDLGLVAEQLIKKKKMTTLAFEELTVRKVRETFDEIASLTGEGSMKRKIMLLTGLYGLATPLEARYLTRLILNEMRLGVGEGIMRDAIARAFRADPETVERAYMITNDLGRVAVVAKKEGEEGLRKMKIEIHIPVRMMLAQVAESLESAVREMRTAAVEWKFDGSRVQVHWDGSRVTIYSRRLENVTNALPDIVEEIKKSVKPGVILDGEVIAVKEGKPMPFQHVLRRFRRKHDVAKMVEKIPLEAHFFDILYHDGECIDLPLRERRKLLESAVNESEKIKLAKQIVTDSVDEVRKMYDEAISAGHEGVMIKLPSSPYIPGKRGKNWLKVKAIMETLDLVVVGGEWGEGKRSHWLSSFELACLDPVTGKLLKVGRVATGFTEEDLEELTEMFRPLIVSQQGKKVEFIPKYVFEVAYQEIQKSPKYESGYALRFPRFVRLRDDKDVDEADTIERVENLYKLQFEVKRQ | soluble |
| GSHMRKIQRYVRKDGKCNVHHGNVREKRAETLVFSTHAVISMRDGKLCLMFRVGDLRNSHIVEASIRAKLIKSKQTSEGEFIPLNQTDINVGYYTGDDRLFLVSPLIISHEINQQSPFWEISKAQLPKEELEIVVILEGMVEATGMTCQARSSYITSEILWGYRFTPVLTLEDGFYEVDYNSFHETYETSTPSLSAKELAELANRAEV | soluble |
| GSHMTAEADTSSELAKKSKEVFRKEMSQFIVQCLNPYRKPDCKVGRITTTEDFKHLARKLTHGVMNKELKYCKNPEDLECNENVKHKTKEYIKKYMQKFGAVYKPKEDTELE | soluble |
| GSHMTNDIYFMTLAIEEAKKAAQLGEVPIGAIITKDDEVIARAHNLRETLQQPTAHAEHIAIERAAKVLGSWRLEGCTLYVTLEPCVMCAGTIVMSRIPRVVYGADDPKGGCSGSLMNLLQQSNFNHRAIVDKGVLKEACSTLLTTFFKNLRANKKSTN | soluble |
| GSHPLGDTSDASKLSSDYSLPDLINTRKVPNNWQTGEQASLEEGRIVLTSNQNSKGSLWLKQGFDLKDSFTMEWTFRSVGYSGQTDGGISFWFVQDSNIPRDKQLYNGPVNYDGLQLLVDNNGPLGPTLRGQLNDGQKPVDKTKIYDQSFASCLMGYQDSSVPSTIRVTYDLEDDNLLKVQVDNKVCFQTRKVRFPSGSYRIGVTAQNGAVNNNAESFEIFKMQFFNGVIEDSLIPNVNAMGQPKLITKYIDQQTG | soluble |
| GSMAGSVGAAAPVTAANGDDSESETSESDDDSPPRPAAVAVHKREEDEEEDDEFEEVADDPIVMVAGRPFSYSEVSQRPELVAQMTPEEKEAYIAMGQRMFEDLFE | soluble |
| GSMAWHLGIRSQSRPNDIMAEVCRAIKQLDYEWKVVNPYYLRVRRKNPVTSTFSKMSLQLYQVDSRTYLLDFRSIDDEITEAKSGTATPQRSGSISNYRSCQRSDSDAEAQGKPSEVSLTSSVTSLDSSPVDVAPRPGSHTIEFFEMCANLIKILAQ | soluble |
| GSPLPWCPHLVAVCPIPAAGLDVTQPCGDCGTIQENWVCLSCYQVYCGRYINGHMLQHHGNSGHPLVLSYIDLSAWCYYCQAYVHHQALLDVKNIAHQNKFGEDMPHPH | soluble |
| GSSGSSGGEIIEGCRLPVLRRNQDNEDEWPLAEILSVKDISGRKLFYVHYIDFNRRLDEWVTHERLDLKKIQFPKKEAKTPSGPSSG | soluble |
| GSSGSSGHESETTTSLVLERSLNRVHLLGRVGQDPVLRQVEGKNPVTIFSLATNEMWRSGDSEVYQLGDVSQKTTWHRISVFRPGLRDVAYQYVKKGSRIYLEGKIDYGEYMDKNNVRRQATTIIADNIIFLSDQTKEKE | soluble |
| GSSSLIRRVISTAKAPGAIGPYSQAVLVDRTIYISGQIGMDPSSGQLVSGGVAEEAKQALKNMGEILKAAGCDFTNVVKTTVLLADINDFNTVNEIYKQYFKSNFPARAAYQVAALPKGSRIEIEAVAIQGPLTTASL | soluble |
| GSVTVPEVIASEVISYAQEENLLRKYGTVIRTAGDVKYPILVKKAEANVNKKERTTDITETAIQFDEILLDPAEFDALATVTKKLLKMSGVPVEDIVVEELKKAYVRKEINYMFNGDDAGNENPGALAKKAVAFEKPVDLTAAGAGQKLYDALIEFKNTPVTEVMKKGRFIINRAALTAIEKMKTDDGFPLLRPFTQAEGGIGYQLVGYPVDWTDAADKKGEPDTPVLYFGDFSAFKIQEVIGALEIQKLVEKFSGKNQVGFQIYNLLDGQLVYSPFEPAVYRYEITKPVGG | not soluble |
| GTPEQLQAWRWEREIDERNRPLSDEELDAMFPEGYKVLPPPAGYVPI | soluble |
| GTTKHSKLLILGSGPAGYTAAVYAARANLQPVLITGMEKGGQLTTTTEVENWPGDPNDLTGPLLMERMHEHATKFETEIIFDHINKVDLQNRPFRLNGDNGEYTCDALIIATGASARYLGLPSEEAFKGRGVSACATCDGFFYRNQKVAVIGGGNTAVEEALYLSNIASEVHLIHRRDGFRAEKILIKRLMDKVENGNIILHTNRTLEEVTGDQMGVTGVRLRDTQNSDNIESLDVAGLFVAIGHSPNTAIFEGQLELENGYIKVQSGIHGNATQTSIPGVFAAGDVMDHIYRQAITSAGTGCMAALDAERYLDGLADAK | soluble |
| GTTVHCDYLNRPHKSIHRRRTDPMVTLSSILESIINDMRDLPNTYPFHTPVNAKVVKDYYKIITRPMDLQTLRENVRKRLYPSREEFREHLELIVKNSATYNGPKHSLTQISQSMLDLCDEKLKEKEDKLARLEKAINPLLDDDDQVAFSFILDNIVTQKMMAVPDSWPFHHPVNKKFVPDYYKVIVNPMDLETIRKNISKHKYQSRESFLDDVNLILANSVKYNGPESQYTKTAQEIVNVCYQTLTEYDEHLTQLEKDICTAKEAALEEAELESLDPMT | soluble |
